{"source": "paper PMC9300613", "key": {"[1]": {"molecular_target": "bovine brain αβ-tubulin (taxol-stabilised microtubules, dolastatin-induced rings or DARPin-capped free dimer for biochemical assays) (bovine) (UniProt Q6B856)", "assay": "co-sedimentation; 1 μM kinesin with 0-10 μM taxol-stabilised microtubules, BRB80 + 100 mM KCl, 2 mM AMP-PNP, 20 μM taxol, 20 min at 25 °C; pellet and supernatant by SDS-PAGE; Kd from a quadratic fit"}, "[2]": {"molecular_target": "bovine brain αβ-tubulin (taxol-stabilised microtubules, dolastatin-induced rings or DARPin-capped free dimer for biochemical assays) (bovine) (UniProt Q6B856)"}}}
{"substance": "HsKHC-MDN_(L2-CaKip3) (HsKHC-MDN with loop-2 IASK, I41-K44, replaced by CaKip3 loop-2 F116-H144) (from UniProt P33176;A0A1D8PKA4) (domain or fragment)", "values": [{"measurement": "fold greater affinity than HsKHC-MDN", "setting": "[1]", "value": 7, "unit": "fold"}, {"measurement": "microtubule-gliding speed of HsKHC-MDN (L2-CaKip3) relative to HsKHC-MDN (taxol-stabilised microtubules)", "setting": "[2]", "value": 2, "unit": "fold"}, {"measurement": "microtubule-stimulated ATP turnover at steady state, relative to HsKHC-MDN", "setting": "[2]", "value": 2, "unit": "fold"}]}
